Results: patent US20230212635

What was measured:
C3b = C3b (UniProt P01024)

Chain of C3b, P01024 (P01024 whole entry, looked up): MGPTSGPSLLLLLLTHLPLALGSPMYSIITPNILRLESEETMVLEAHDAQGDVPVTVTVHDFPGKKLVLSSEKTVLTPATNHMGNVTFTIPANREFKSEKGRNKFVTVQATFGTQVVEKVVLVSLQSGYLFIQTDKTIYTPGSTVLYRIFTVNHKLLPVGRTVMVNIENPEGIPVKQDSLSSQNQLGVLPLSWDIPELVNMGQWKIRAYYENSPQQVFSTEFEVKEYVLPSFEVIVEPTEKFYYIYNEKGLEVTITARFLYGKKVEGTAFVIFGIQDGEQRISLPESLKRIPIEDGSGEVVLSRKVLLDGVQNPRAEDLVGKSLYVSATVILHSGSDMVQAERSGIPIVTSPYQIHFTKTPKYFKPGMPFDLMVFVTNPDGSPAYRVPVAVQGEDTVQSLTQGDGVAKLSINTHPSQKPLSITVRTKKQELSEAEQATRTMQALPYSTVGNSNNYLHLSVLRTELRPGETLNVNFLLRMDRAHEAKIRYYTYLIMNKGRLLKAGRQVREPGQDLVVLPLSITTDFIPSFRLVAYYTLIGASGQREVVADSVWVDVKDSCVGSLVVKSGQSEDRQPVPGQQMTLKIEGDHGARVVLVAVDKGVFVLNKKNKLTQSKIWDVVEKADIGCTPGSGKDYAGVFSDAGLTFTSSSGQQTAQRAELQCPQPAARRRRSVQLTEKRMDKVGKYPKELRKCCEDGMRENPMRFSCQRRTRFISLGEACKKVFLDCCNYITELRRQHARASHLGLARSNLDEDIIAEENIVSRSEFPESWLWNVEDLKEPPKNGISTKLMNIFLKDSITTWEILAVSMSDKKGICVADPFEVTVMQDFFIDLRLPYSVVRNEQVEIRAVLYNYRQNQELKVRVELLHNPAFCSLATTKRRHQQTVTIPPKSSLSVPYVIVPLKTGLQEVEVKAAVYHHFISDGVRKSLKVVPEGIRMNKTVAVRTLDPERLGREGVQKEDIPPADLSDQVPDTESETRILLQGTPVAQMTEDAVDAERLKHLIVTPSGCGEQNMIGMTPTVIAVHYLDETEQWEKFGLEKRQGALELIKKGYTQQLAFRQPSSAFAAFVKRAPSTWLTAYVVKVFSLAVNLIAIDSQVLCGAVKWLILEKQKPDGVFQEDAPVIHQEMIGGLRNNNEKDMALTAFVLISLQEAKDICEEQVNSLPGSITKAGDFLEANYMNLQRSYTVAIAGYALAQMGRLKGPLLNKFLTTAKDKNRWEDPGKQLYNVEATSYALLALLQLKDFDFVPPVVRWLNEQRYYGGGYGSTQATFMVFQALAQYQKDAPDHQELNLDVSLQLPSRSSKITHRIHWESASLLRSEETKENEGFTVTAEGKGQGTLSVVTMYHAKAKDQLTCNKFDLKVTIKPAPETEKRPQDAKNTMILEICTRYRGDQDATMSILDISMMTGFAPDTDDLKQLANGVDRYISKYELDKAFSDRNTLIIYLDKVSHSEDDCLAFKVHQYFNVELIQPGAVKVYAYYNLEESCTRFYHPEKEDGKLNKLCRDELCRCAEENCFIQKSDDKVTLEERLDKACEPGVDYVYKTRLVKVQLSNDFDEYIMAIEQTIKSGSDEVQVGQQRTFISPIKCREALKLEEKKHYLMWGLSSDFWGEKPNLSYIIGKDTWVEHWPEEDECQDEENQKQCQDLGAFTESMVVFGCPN

recombinant mature Complement Factor I from the pDEF-CFI vector in CHO-K1 cells (first Mono S peak)
fluid phase cofactor activity (C3b cleavage with Factor H, SDS-PAGE, Coomassie) (C3b): At 30 minutes the lowest concentration of fully processed factor I (6.25ng) (right) had cleaved C3b as evidenced by decrease in C3α -110 band and increase in C3α-68,-46, and -43 bands

recombinant mature Complement Factor I produced from the Furin-IRES-CFI vector (VB171219-1127wqz) in HEK293T cells
fluid phase cofactor activity (C3b cleavage with Factor H, SDS-PAGE, Coomassie) (C3b): Enzymatic activity of IRES CFI and serum CFI was demonstrated to be equivilant.

recombinant precursor Complement Factor I (single chain with intact RRKR linker)
fluid phase cofactor activity (C3b cleavage with Factor H, SDS-PAGE, Coomassie) (C3b): by 45 minutes 10ng of precursor CFI showed no demonstrable activity

B1: serum purified Complement Factor I (Complement Technology, A138) (protein)
chain: KVTYTSQEDLVEKKCLAKKYTHLSCDKVFCQPWQRCIEGTCVCKLPYQCPKNGTAVCATNRRSFPTYCQQKSLECLHPGTKFLNNGTCTAEGKFSVSLKHGNTDSEGIVEVKLVDQDKTMFICKSSWSMREANVACLDLGFQQGADTQRRFKLSDLSINSTECLHVHCRGLETSLAECTFTKRRTMGYQDFADVVCYTQKADSPMDDFFQCVNGKYISQMKACDGINDCGDQSDELCCKACQGKGFHCKSGVCIPSQYQCNGEVDCITGEDEVGCAGFASVTQEETEILTADMDAERRRIKSLLPKLSCGVKNRMHIRRKRIVGGKRAQLGDLPWQVAIKDASGITCGGIYIGGCWILTAAHCLRASKTHRYQIWTTVVDWIHPDLKRIVIEYVDRIIFHENYNAGTYQNDIALIEMKKDGNKKDCELPRSIPACVPWSPYLFQPNDTCIVSGWGREKDNERVFSLQWGEVKLISNCSKFYGNRFYEKEMECAGTYDGSIDACKGDSGGPLVCMDANNVTYVWGVVSWGENCGKPEFPGVYTKVANYFDWISYHVGRPFISQYNV
fluid phase cofactor activity (C3b cleavage with Factor H, SDS-PAGE, Coomassie) (C3b, P01024): Enzymatic activity of IRES CFI and serum CFI was demonstrated to be equivilant.
